Results from patent US20210015937A1 (CRESCENDO BIOLOGICS, published 2021).

Columns and labels:
[1] = target: T1, recombinant human LAG-3-Fc (human, UniProt P18627 23-450); assay: competition ELISA; LAG-3-Fc pre-incubated with VH, binding to coated Galectin-3
T1 construct: also called human LAG-3 (R&D Systems cat no. 2319-L3); LAG3 antigen
T1 sequence: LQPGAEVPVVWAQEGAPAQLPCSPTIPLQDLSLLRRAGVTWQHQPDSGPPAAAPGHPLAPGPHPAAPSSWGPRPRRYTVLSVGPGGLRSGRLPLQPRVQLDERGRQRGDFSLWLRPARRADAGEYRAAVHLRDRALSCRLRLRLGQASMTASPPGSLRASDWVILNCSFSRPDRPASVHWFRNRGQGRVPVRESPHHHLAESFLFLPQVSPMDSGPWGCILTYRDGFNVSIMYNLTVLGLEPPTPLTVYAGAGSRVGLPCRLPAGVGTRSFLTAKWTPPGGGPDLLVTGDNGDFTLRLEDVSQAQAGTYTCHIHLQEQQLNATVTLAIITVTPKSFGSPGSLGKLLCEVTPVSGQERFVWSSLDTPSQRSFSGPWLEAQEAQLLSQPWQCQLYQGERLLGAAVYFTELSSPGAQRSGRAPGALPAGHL
Text: (§1) The plate was blocked with 3% Marvel skimmed milk powder in PBS. […] Wash steps were done 3 times with PBS 0.05% Tween. Colour was developed using TMB and 0.5M sulphuric acid solution.

mouse LAG-3 = target: T2, mouse LAG-3 (mouse, UniProt Q61790 24-442); assay: ELISA, coated antigen, anti-HIS HRP detection
T2 construct: The construct is not described; also called mouse LAG-3 (Sino Biological cat no 53069-M02H); Mouse LAG3 (R&D Biotechne cat 3328-L3)
T2 sequence (looked up): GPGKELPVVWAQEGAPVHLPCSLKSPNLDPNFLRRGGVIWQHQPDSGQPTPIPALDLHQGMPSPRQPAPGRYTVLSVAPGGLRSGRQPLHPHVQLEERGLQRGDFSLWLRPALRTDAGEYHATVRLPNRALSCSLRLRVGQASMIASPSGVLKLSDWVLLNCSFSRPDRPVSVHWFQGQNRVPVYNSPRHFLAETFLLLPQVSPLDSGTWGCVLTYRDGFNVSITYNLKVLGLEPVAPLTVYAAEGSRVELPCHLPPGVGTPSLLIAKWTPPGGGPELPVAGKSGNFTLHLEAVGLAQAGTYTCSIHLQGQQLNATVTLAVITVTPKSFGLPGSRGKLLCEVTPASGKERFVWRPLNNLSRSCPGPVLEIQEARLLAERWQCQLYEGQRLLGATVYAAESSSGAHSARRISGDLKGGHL
Experimental: (§2) To screen specificity by ELISA, antigens were coated at 1-5 ug/ml and blocked with Marvel milk powder. VH were added at 10 μg/ml and incubated for 1 hour. After washing, HRP-conjugated anti-HIS antibody (Miltenyi cat no. 130-092-785) was added. TMB substrate and acidic solution were used to develop colorimetric signal.

CD4 = target: T3, CD4 (UniProt P01730 26-390); assay: ELISA, coated antigen, anti-HIS HRP detection
T3 construct: also called CD4 (R&D Biotechne 514-CD)
Experimental: as §2

[2] = target: T4, human LAG-3 domains 1-2-Fc (human, UniProt P18627 23-261, limits assumed); assay: BLI (Octet); human LAG-3 domains 1-2-Fc captured on protein G biosensors, 1:1 fit
T4 construct: Domains were identified as per Huard et al 1997 PNAS 94:5744-9; also called truncated LAG-3
T4 sequence: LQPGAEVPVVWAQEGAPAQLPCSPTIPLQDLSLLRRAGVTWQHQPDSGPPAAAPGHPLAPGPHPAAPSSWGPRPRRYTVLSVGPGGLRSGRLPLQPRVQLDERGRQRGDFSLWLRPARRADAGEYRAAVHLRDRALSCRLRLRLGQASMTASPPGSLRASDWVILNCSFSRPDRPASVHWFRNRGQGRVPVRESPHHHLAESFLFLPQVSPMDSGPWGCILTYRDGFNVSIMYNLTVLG
Experimental: Binding kinetics for multi-valent and bispecific VH were also measured in real-time bio-layer interferometer based biosensor Octet (ForteBio). […] All the binding studies were performed in HBS-ET Octet kinetics buffer. Biosensors were washed in Octet kinetics buffer in between different steps. […] The contact time for each of the association steps was 150 seconds and the dissociation step was 400 seconds. […] To compare the constructs, kinetic association (kₐ) and dissociation (kd) rate constants were determined by processing and fitting the data to a 1:1 binding model using ForteBio Analysis software.

[3] = target: T1, recombinant human LAG-3-Fc; assay: competition ELISA; LAG-3-Fc pre-incubated with VH, binding to coated LSECtin
Text: as §1

[4] = target: T5, human LAG-3 expressed on cells (human, UniProt P18627 23-525); assay: flow cytometry (Intellicyte) on anti-CD3/anti-CD28 stimulated human CD4+ T cells; His-tagged VH detected with anti-HIS biotin and streptavidin AlexaFluor488
T5 construct: also called CHO cells expressing human LAG-3; CHO human LAG-3 cells
T5 sequence: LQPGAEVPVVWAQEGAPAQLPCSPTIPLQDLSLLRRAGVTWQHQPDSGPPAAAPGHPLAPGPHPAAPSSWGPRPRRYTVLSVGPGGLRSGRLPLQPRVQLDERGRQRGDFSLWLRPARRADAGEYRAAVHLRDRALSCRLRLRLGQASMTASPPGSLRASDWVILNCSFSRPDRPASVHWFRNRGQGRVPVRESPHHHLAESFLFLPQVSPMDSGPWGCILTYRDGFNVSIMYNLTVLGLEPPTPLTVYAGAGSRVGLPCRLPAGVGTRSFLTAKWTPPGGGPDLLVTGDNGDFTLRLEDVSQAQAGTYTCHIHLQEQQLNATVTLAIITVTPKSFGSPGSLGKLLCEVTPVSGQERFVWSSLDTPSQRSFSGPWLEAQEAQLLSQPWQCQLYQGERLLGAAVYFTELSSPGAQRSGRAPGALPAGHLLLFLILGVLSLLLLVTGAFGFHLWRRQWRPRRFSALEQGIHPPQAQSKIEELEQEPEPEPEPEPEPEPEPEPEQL
Experimental: FIG. 2. CD4+ T cells were stimulated with anti-CD3 and anti-CD28. Cells were stained with HIS tagged VH plus anti-HIS tag labelled with biotin and streptavidin AlexaFluor488. Cells were analysed using Intellicyte® cytometer.
Binding onto human activated T cells was measured by cytometry. PBMC or magnetically isolated T cells were isolated from leukocytes cones and cells were incubated in 96 well plates coated with anti-CD3 (OKT3) at 5 μg/ml. Anti-CD28 (CD28.2) was added at 1 μg/ml in RPMI media and foetal bovine serum. After 72-96 hours, cells were harvested and stained using standard flow cytometry methods. […] Fluorescently labelled anti-CD4 and anti-CD8 were included in PBMC cultures and a live/dead dye. Stained cells were analysed using the IQue cytometer (Intellicyte). EC50 were calculated from the titration curve of median fluorescence of Humabody, gating on CD4+ or CD8+ cells if using mixed cells.

IC50 [1]: 34 nM
binding result (mouse LAG-3): no binding (tested: 10 µg/ml VH)
binding result (CD4): no binding (tested: 10 µg/ml VH)
Kd [2]: 0.811 nM
koff [2]: 0.000522 s⁻¹
kon [2]: 644000 M⁻¹ s⁻¹
IC50 [3]: 55 nM
EC50 (read off the curve) [4]: ~100 pM
B1: VH1.1-6GS-VH1.1-His6 (VHH)
chain: EVQLVESGGGVVRPGGSLRLSCSASGFTFDDYGMSWVRQAPGKGLEWVSGIHWNGGNSGYADSVKGRFTISRDNAKNSLYLQMNSLRAEDTALYYCARIPREDCSSASCYTDAIDFWGPGTMVTVSSGGGGSGGGGSGGGGSGGGGSGGGGSGGGGSEVQLVESGGGVVRPGGSLRLSCSASGFTFDDYGMSWVRQAPGKGLEWVSGIHWNGGNSGYADSVKGRFTISRDNAKNSLYLQMNSLRAEDTALYYCARIPREDCSSASCYTDAIDFWGPGTMVTVSSAAAHHHHHH
notes: Tandem fusion of two VH 1.1, bivalent for LAG-3; The entry includes the C-terminal AAA-His6; also called 1.1-6GS-1.1; bivalent 1.1-6GS-1.1
